# Reference: article PMC5457501 (Nature Communications, 2017)
# Residue numbers refer to the chain shown, from its start. Numbers in names are those of the source. Where “and” joins values, the source holds several entries; their conditions need not be identical. Equal values may be shown once.
# B1: PrimPol_(514-528) peptide (peptide, UniProt Q96LW4 514-528, looked up)
# peptide: DNGIDDAYFLEATED
# notes: PrimPol, human, residues 514-528 (RBM-A), 15-mer; also called RBM-A peptide residues (PrimPol_(514-528)); 15-mer PrimPol_(514-528) peptide; source: synthetic peptide (Genscript), used as supplied
# B2: RBM-A peptide (RBM-A_(510-528)) (peptide, UniProt Q96LW4 510-528, looked up)
# peptide: DAVWDNGIDDAYFLEATED
# notes: source: synthetic peptide (GenScript), HPLC purified
# B3: PrimPol RPA-binding domain (PrimPol_(480-560)) (domain or fragment, human, UniProt Q96LW4 480-560, looked up)
# chain: TTDEADETRSNETQNPHKPSPSRLSTGASADAVWDNGIDDAYFLEATEDAELAEAAENSLLSYNSEVDEIPDELIIEVLQE
# notes: 15N-enriched for one NMR sample; also called PrimPolRBD; RBD; source: E. coli BL21(pLysS), purified (Ni Sepharose, Q Sepharose, Superdex 75)
# B4: PrimPol RBD RBM-A knockout (D514R/D518R/D519R) (domain or fragment, human, UniProt Q96LW4 480-560, looked up)
# chain: B3 chain with D35R, D39R, D40R
# notes: PrimPol, human, RBD residues 480-560 with D514R, D518R, D519R; also called PrimPol_(A-KO); RBD_(A-KO); source: E. coli BL21(pLysS), purified (Ni Sepharose, Q Sepharose, gel filtration)
# B5: PrimPol RBD RBM-B knockout (480-546 truncation) (domain or fragment, human, UniProt Q96LW4 480-546, looked up)
# chain: TTDEADETRSNETQNPHKPSPSRLSTGASADAVWDNGIDDAYFLEATEDAELAEAAENSLLSYNSEV
# notes: PrimPol, human, residues 480-546 (RBD without RBM-B); also called PrimPol_(B-KO); RBD_(B-KO); source: E. coli BL21(pLysS), purified (Ni Sepharose, Q Sepharose, gel filtration)
# B6: RPA70N (RPA70 residues 1-120) (domain or fragment, human, UniProt P27694 1-120, looked up)
# chain: MVGQLSEGAIAAIMQKGDTNIKPILQVINIRPITTGNSPPRYRLLMSDGLNTLSSFMLATQLNPLVEEEQLSSNCVCQIHRFIVNTLKDGRRVVILMELEVLKSAEAVGVKIGNPVPYNE
# notes: RPA70 (replication protein A 70 kDa subunit), human, N-terminal domain, residues 1-120; pET15b construct; 15N-enriched for some NMR samples; also called RPA70_(1-120); RPA70N domain of RPA70; source: E. coli BL21 (DE3), purified (HisTrap, thrombin cleavage, Superdex 75)
# B7: RPA70N^E7R (domain or fragment, human, UniProt P27694 1-120, looked up)
# chain: B6 chain with E7R
# notes: RPA70, human, N-terminal domain, residues 1-120, with E7R (variant optimised for crystallisation of complexes); source: E. coli BL21 (DE3), purified (HisTrap, thrombin cleavage, Superdex 75)
# How the values were obtained:
# Conditions in all cases: both partners purified
# RPA70N^E7R = target: B7; assay: crystal structure; co-crystals by sitting-drop vapour diffusion at 293 K; RPA70N E7R with PrimPol 514-528 peptide (2.5:1 peptide:protein) or with PrimPol 480-560 (1:1)
# [1] = target: B6; assay: NMR titration; 15N-1H HSQC at 25 C; 100 uM 15N-enriched RPA70N or 15N-enriched PrimPol 480-560 alone and with 200 uM unlabelled partner; 20 mM HEPES pH 7.5, 80 mM NaCl, 2 mM DTT
# [2] = target: B6; assay: ITC; MicroCal VP-ITC; 400 uM PrimPol RBD (WT or variants) injected into 20 uM RPA70N; 20 mM HEPES pH 7.5, 80 mM NaCl, 3 mM beta-mercaptoethanol; single-site model
# [3] = target: B3; assay: SEC; analytical gel filtration, Superdex S75 10/300 GL, 50 mM Tris-HCl pH 7.5, 100 mM NaCl, 2 mM TCEP; 0.5 ml loaded at 35 uM; binding read from a shift of the peaks
# [4] = target: B3; assay: SEC-MALS; Superdex 75 increase 10/300 GL, 20 mM HEPES pH 7.1, 80 mM NaCl, 0.5 mM TCEP; RBD at 185 uM with RPA70N E7R at 0, 1, 2 and 4 x molar ratios
binder,measurement,setting,value
B1,binding result,RPA70N^E7R,binds
B2,binding result,[1],binds
B3,binding result,RPA70N^E7R,binds
same,binding result,[1],binds
B4,Kd,[2],7.8 ± 0.6 µM
B5,Kd,[2],6.7 ± 1.5 µM
B6,stoichiometry N,[3],2 RPA70N per PrimPolRBD
B7,stoichiometry N,[4],1 RPA70N per PrimPolRBD and 2 RPA70N per PrimPolRBD
